Measured values from patent publication US6103692.

Biological target: endogenous Ras (COS cells)

- EGF or PMA-stimulated activation of Raf kinase in COS cells: > 85%
Substance: Myc-Raf (84-87A) (from UniProt P04049) (enzyme)
